According to PMC10338078:

Biological target: Drosophila Deltex WWE2 domain (residues 26-261; Dx1A*) (Drosophila) (UniProt Q23985)
Assay: AUC

Sequence of UniProt Q23985 (Q23985 26-261): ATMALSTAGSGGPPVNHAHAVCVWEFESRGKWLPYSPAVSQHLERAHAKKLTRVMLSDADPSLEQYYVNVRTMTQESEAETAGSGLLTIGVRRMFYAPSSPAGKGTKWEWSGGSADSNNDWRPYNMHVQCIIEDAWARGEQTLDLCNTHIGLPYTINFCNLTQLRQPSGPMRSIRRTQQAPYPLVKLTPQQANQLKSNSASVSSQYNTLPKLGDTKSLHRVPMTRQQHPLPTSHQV

Substance: Drosophila Notch ANK domain (Nank1-7*) R2007A (from UniProt P07207 1901-2048) (domain or fragment)
- weight-averaged sedimentation coefficient (sw) of a 45 μM 1:1 mixture: 3.51e-13 s
